Data taken from the supplement of paper PMC12042874.
± gives the uncertainty stated by the source.

Experiment: amyloid nucleation score (Sup35N fusion, yeast selection) (log enrichment); library NNK3; higher = more nucleation; inactive = no reads after selection
Outline: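 Plasmid inserts were Illumina-sequenced at input and output from psi-negative yeast expressing Sup35N fused to peptides of 20 random codons. The yeast were induced with 100 μM copper sulfate for 24 hours and grown 7 days at 30°C on medium lacking adenine and uracil, and sequences with under 100 input reads were excluded. Nucleation score is the DiMSum log enrichment of output over input reads, centred on the mode score of non-aggregating sequences.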

Substance | amyloid nucleation score
PSVIRNAYYAY | inactive
PSYFEYFVRIGFFG | inactive
PSYNCFTKFVADQTVTLRFS | inactive
PTATRGPMTLRSHASHHRTL | inactive
PTELIACVAIYNVDYLYWIH | 2 ± 0.082
PTITNS | inactive
PTQNKSDKVACGR | inactive
PTRFMTMKETKPVCWWLGNR | -0.114 ± 1.1
PVKGSFDT | inactive
PVLML | inactive
PVNGAVYTKGLTSWLRFIVV | -0.178 ± 0.82
PVSNRLSCDSAFTFPYNMIF | 0.883 ± 0.16
PVTDLWLTFS | inactive
PVYGSLCRFYGVRYGR | inactive
PWDSLW | 0.894 ± 0.12
PWHLIIDLQGWIFLVYEIGQ | inactive
PWRCKRWHFYMYVDCANLRQ | inactive
PYAGCIH | inactive
PYKEFPNNVRPTWNQRYNVK | inactive
PYLRT | inactive
PYSISMISTRYCLGRQHD | inactive
QARIWSSSVGAFSNCHSCRC | inactive
QARVRYDASTLLFGCTFC | 2.65 ± 0.079
QCDVCVCCVARAEAVRRILG | 2.33 ± 0.075

Substance | amyloid nucleation score
QCKGCFSPVFKSCFICR | inactive
QCKVCIMLYKGDLRANGWYG | 1.86 ± 0.091
QCLIYLYVFVLPVLEFGMDR | inactive
QCMIYYTDKLLKYSSCTRTM | inactive
QCPKCDLLMRDSDIRFTHAG | inactive
QDFYSACSNIVNST | inactive
QEGGRWEPQKGRWESQAYLS | -0.062 ± 0.49
QFIWRLLRDSTKNFTLLSYK | inactive
QFSMLMVVLCP | inactive
QFVCHHGSPAFPNDGVAKLL | inactive
QGIGGATVTFLRLFV | inactive
QGLSRIRTKQGLAWIGLYTV | inactive
QGNRS | inactive
QGSYTAESTVHHWGFKMNNY | 0.754 ± 0.22
QGYMFFCHYIDICS | inactive
QHMFQAWFTVNKFSRGECGF | inactive
QHRSESIFFVIKSLLLRGCI | inactive
QIALSYSCIITRCVCNLCQR | 3.12 ± 0.056
QIMILVCCQTGFWSERARRG | 2.98 ± 0.058
QISFGLLINLSVIFSGLDLV | 0.801 ± 0.27
QKLNIAFRWFWWFCTLSCNS | inactive
QLFVRVIWDMP | 0.186 ± 0.45
QLGLIVRNSCLSSIVVKGML | -0.06 ± 0.54
QLLCHYNSSSEFLTQKHRYW | inactive

Substance | amyloid nucleation score
QLMPKRAVKRDYRDSSWSGV | inactive
QLMYRE | inactive
QLQSYRQGTFGDQYSPSVHS | inactive
QLYVTPYLRDVWYDQASSYE | inactive
QMDRRTPLM | inactive
QMLLDRRGKSTAATRVAPTD | inactive
QMSCNQRNISMGFKIGRFYM | 1.5 ± 0.061
QNCIHKRRSLGSTCATEWDV | -0.399 ± 1
QNCQVLKFRAILFNYLLFLT | inactive
QNHTVHSARWDNGSTANTTT | inactive
QNVFWIVSGTSEWGSALVFG | inactive
QNVWSSVDNRWSIVENCTMA | 0.464 ± 0.37
QQHDELCGVHMGSGHF | inactive
QRAYVLVTLVFGA | inactive
QRMTNFLLGRVSV | inactive
QRSSHGPLGCLSDLQLNTLR | -0.882 ± 1.4
QSEICLSWCIQSVGDVVDYR | inactive
QSFLATSFSFYFLSPGYVNY | inactive
QSFQRSVYFSSKGNTEGLFS | inactive
QSGSVCIGSHASLRRAVVRR | inactive
QSNFLFLDFANVYSHKQWCL | 1.71 ± 0.066
QSPRDTSPDLRTYCLVA | inactive
QSYVRQF | inactive
QTRELRSQLLMPFSITDVRS | inactive

Substance | amyloid nucleation score
QTSNMVAWCLSLFRAGRPTK | inactive
QTVTRLTNSNSKLYFQPDVA | inactive
QVLRSYHYGCYSGCGALHMR | inactive
QVNFGRGQRTLVWTGIRCSH | inactive
QYCVIMWPCIYFRVTFSF | inactive
QYGSLGSTYTSAYLWRLYVL | inactive
QYKLFFYWESMV | inactive
QYLCWCCVARRPGSGFRTVV | inactive
RAFMVSVSHCRMCWIWC | inactive
RAGTKLPLYL | inactive
RAKVISSWSLPGSSVKSYPA | inactive
RANWLGLVTVGS | inactive
RARLHSVAINDVHSFTVSLG | 0.004 ± 0.39
RAWVLHCGNGYWYPLGQ | inactive
RCDIFTTTFEFREVHCLWVG | inactive
RCFGKIC | inactive
RCFRTLIRENMKLANTSDMT | inactive
RCHISERD | inactive
RCICTRFLVPWDSIA | inactive
RCLAPGCRIVNRFLSINYKS | inactive
RCNGTL | inactive
RCVSFTLKIGLIFKQTPSCR | inactive
RCWLKRAWVWSQKVSDRSTW | inactive
RCYNHFHSI | inactive

Substance | amyloid nucleation score
RDDFYLNFNFNFVRHGTRDS | 1.26 ± 0.15
RDFAR | inactive
RDIASQC | -0.698 ± 0.98
RDLMEGRTTLWMNSGTAIWA | inactive
RDPSQNTSKHLSNVAFISLY | inactive
RDQSVCGLSRGVIRVVGSCG | inactive
RDRGKY | inactive
RDRPKFII | inactive
RDVWDYSREHLYNDDFLIGA | -0.422 ± 0.75
RDYKLVRHHSHKDVLSCILW | inactive
REVGDQMIDLSRSYVQSTVG | inactive
REVVRDWERCY | inactive
RFAVTSVMLTSETRDGFDHA | inactive
RFEFDQVFMF | 1.32 ± 0.13
RFFAIL | inactive
RFGFSVKFMYDDGMSAVCTS | inactive
RFGSVCPDL | inactive
RFGVSKLARAS | inactive
RFIGFYPLLQGKNAASGRVL | inactive
RFILDVMRVAAGFMVSK | inactive
RFIVS | inactive
RFKVT | inactive
RFLFNKRL | -0.029 ± 0.81
